Source: patent US20140193421A1 (EISAI R AND D MANAGEMENT, published 2014)
Residue numbers refer to the chain shown, from its start. Where no end group is shown, it is not given here. The star is where a group is joined. Biotin = O=C1N[C@H]2[C@H](CS[C@H]2CCCCC(=O)*)N1

T1: human XCR1-EGFP (human, UniProt P46094 1-333, EGFP fused to the receptor is not carried in the letters.)
T1 sequence: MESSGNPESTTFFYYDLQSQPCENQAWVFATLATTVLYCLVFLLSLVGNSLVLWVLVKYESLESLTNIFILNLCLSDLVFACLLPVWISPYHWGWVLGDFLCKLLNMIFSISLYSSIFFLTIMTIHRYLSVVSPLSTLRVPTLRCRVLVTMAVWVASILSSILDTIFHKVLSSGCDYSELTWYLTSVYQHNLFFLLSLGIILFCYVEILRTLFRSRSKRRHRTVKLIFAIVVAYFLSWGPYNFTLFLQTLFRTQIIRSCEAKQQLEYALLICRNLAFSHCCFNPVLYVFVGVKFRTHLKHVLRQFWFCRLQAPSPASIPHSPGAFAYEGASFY

T2: human XCR1 peptide 172-183 SSGCDYSELTWY (human)
T2 peptide: Biotin-GSGSSSGCDYSELTWY

T3: human XCR1 peptide 175-186 CDYSELTWYLTS (human)
T3 peptide: Biotin-GSGSCDYSELTWYLTS

T4: human XCR1 peptide 11-22 TFFYYDLQSQPC (human)
T4 peptide: Biotin-GSGSTFFYYDLQSQPC

T5: human XCR1 peptide 19-30 SQPCENQAWVFA (human)
T5 peptide: Biotin-GSGSSQPCENQAWVFA

B1: mouse anti-human XCR1 antibody (2H6) (antibody, IgG2b, V domains shown)
VH: QAYLQQSGAELVRPGASVKMSCKASGYTFSSHNMHWIKQTLRQGLEWIGAIYPGKGNTSYNQKFKGKATLTVDKSSSTAYMQLSSLTSEDSAVYFCARWGSVVGDWYFDVWGTGTTVTVSS
VL: DVVVTQTPLSLPVSLGDQASISCRSSQSLVHSNGNTYLHWYLQKPGQSPKLLIYRVSNRFSGVPDRFSGSGLGRDFTLKISRVEAEDLGVYFCSQSTFVPWTFGGGTKLEIK
B2: mouse anti-human XCR1 antibody (5G7) (antibody, IgG2b, V domains shown)
VH: B1 VH with S30T, M34L, I37V, L41P, E46Q, K55N, S59A, E89D
VL: DVVMTQTPLSLPVTLGNQASIFCRSSLGLVHRNGNTYLHWYLQKPGQSPKLLIYKVSHRFSGVPDRFSGSGSGTDFTLKISRVEAEDLGVYFCSQSTHVPWTFGGGTKLEIK
notes: also called 5G7 Mab; parent antibody 5G7
B3: mouse anti-human XCR1 antibody (11H2) (antibody, IgG2a, V domains shown)
VH: EVQLQQSGPVLVKPGASVKMSCKASGYTFTDYYVNWVKQSHGASLEWIGVSNPKNGDKSYNQKFKGKATLTVDKSSSTAYMELNSLTSEDSAVYYCARGLYYAGTYGYFDVWGTGTTVTVSS
VL: DIQMTQATSSLSASLGDRVTISCRASQDISNYLNWYQQKPDGTVKLLIYYTSRLHSGVPSRFRGSGSGTDFSLTISNLEQEDIATYFCQQGKTLPRTLGGGTKLEIK
B4: humanized anti-human XCR1 antibody HK1L2 (antibody, human IgG2, kappa, V domains shown)
VH: QVQLVQSGAEVKKPGASVKVSCKASGYTFTSHNLHWVRQAPGQRLEWMGAIYPGNGNTAYNQKFKGRVTITRDTSASTAYMELSSLRSEDTAVYYCARWGSVVGDWYFDVWGQGTLVTVSS
VL: DVVMTQSPLSLPVTLGQPASISCRSSLGLVHRNGNTYLHWFQQRPGQSPRLLIYKVSHRFSGVPDRFSGSGSGTDFTLKISRVEAEDVGVYYCSQSTHVPWTFGQGTKVEIKR
B5: humanized anti-human XCR1 antibody HK5L5 (antibody, human IgG2, kappa, V domains shown)
VH: B4 VH with R44G, I70M, A76T, A79V
VL: B4 VL with V2I, S7T, L15P, F41Y, Q42L, R44K, R50Q

How the values were obtained:
[1] = target: T1, human XCR1-EGFP; test: cell-based or functional assay
[2] = target: T1, human XCR1-EGFP; test: competitive ligand binding assay, FACS on human XCR1-EGFP BaF3 cells; competitor human XCL1-SSS-His(10) at 0.12 µg/mL
Description: The competitive ligand binding assay was performed according to the following procedure. Parent BaF3 cells and human XCR1-EGFP-expressing BaF3 cells were mixed at a 1:1 ratio, and suspended in a FACS buffer (1% FBS-containing PBS⁻ (Sigma)). The cells were blocked for 10 minutes on ice with a FACS buffer containing 10% rat serum. The cells were then incubated for 20 minutes on ice with mouse anti-human XCR1 antibodies (2H6, 5G7, or 11H2), mouse isotype control antibodies, IgG2a (eBioscience, #16-4724-85), or IgG2b (eBioscience, #16-4732-85) at various concentrations from 0 to 150 μg/mL. Next the cells were incubated for 30 minutes on ice with human XCL1-SSS-His(10) at a saturating concentration of 0.12 μg/mL. The cells were washed with the FACS buffer three times, and then incubated for 20 minutes on ice with anti-6×His tag antibody (BETHYL, #A190-114A, diluted at 1:100 in FACS buffer). […] Next the cells were once again washed three times with the FACS buffer, and then suspended in FACS buffer. The fluorescence intensity was measured using a FACSCanto II cell analyzer (BD Bioscience).

[3] = target: T1, human XCR1-EGFP; test: cell-based or functional assay; remark: listed apart in the source
[4] = target: T2, human XCR1 peptide 172-183 SSGCDYSELTWY; test: peptide ELISA on streptavidin plates
Description: (§1) Streptavidin-coated microtiter plates (Perkin Elmer) were coated with 50 μg/mL of peptide per well in a volume of 50 μL, and incubated at room temperature for 1 hour. The peptide solution was removed and PBS⁻ containing 4% Block-Ace was added to each well and incubated overnight at 4° C. Each well was washed three times with an ELISA wash buffer (0.02% Tween20 in PBS−). Anti-human XCR1 antibodies (2H6, 5G7, or 11H2) were added to each well in amount of 10 μg/mL, and incubated for 6 hours at room temperature. Each well was washed three times with the ELISA wash buffer. Horseradish peroxidase-conjugated donkey anti-mouse IgG antibody (Jackson, #715-035-150), diluted 1:5,000 in the ELISA wash buffer, was added to each well and incubated for 1 hour at room temperature. Each well was washed three times with the ELISA wash buffer. TMBZ (3,3′,5,5′ tetramethyl benzidine; Sigma) was added to each well and incubated at room temperature. The reaction was stopped with 2NH₂SO₄, and A₄₅₀ₙₘ was measured by Arvo plate reader (PerkinElmer).

[5] = target: T3, human XCR1 peptide 175-186 CDYSELTWYLTS; test: peptide ELISA on streptavidin plates
Description: as §1

[6] = target: T4, human XCR1 peptide 11-22 TFFYYDLQSQPC; test: peptide ELISA on streptavidin plates
Description: as §1

[7] = target: T5, human XCR1 peptide 19-30 SQPCENQAWVFA; test: peptide ELISA on streptavidin plates
Description: as §1

[8] = target: T1, human XCR1-EGFP; test: cell-based or functional assay; remark: listed apart in the source

Binder	IC50 (nM), chemotaxis assay [1]	IC90 (nM), chemotaxis assay [1]	IC50 [2]	IC50 of growth suppression with saporin-conjugated Fab anti-mouse IgG secondary antibody [3]	concentration of complete inhibition of cell migration, chemotaxis assay [3]	binding result [4]	binding result [5]	binding result [6]	binding result [7]	IC50 (nM), chemotaxis assay, Assay-1 [8]	IC50 (nM), chemotaxis assay, Assay-2 [8]	IC50 (nM), chemotaxis assay, Assay-3 [8]
B1	1.28 nM	7.6 nM	37 nM	0.141 nM	~3 µg/mL							
B2	0.63 nM	2.52 nM	6.9 nM	0.017 nM	~3 µg/mL							
B3	0.99 nM	6.32 nM	23.8 nM	0.155 nM	~3 µg/mL	no binding (tested: 10 µg/mL)	no binding (tested: 10 µg/mL)	no binding (tested: 10 µg/mL)	no binding (tested: 10 µg/mL)			
B4										0.1 nM	0.25 nM	0.12 nM
B5										0.52 nM	0.36 nM	0.2 nM
